Numbering of substitutions follows the chain as printed. Values joined by “and” are separate entries in the source; they are usually repeats but may differ in a detail not shown here. Equal entries are not always repeated. Values belong to the binder of their own block, whether it stands above or below them.
Legend:
[1] = target: T1, His-tagged recombinant human LRP10 protein, LRP10-516H (human) (UniProt Q7Z4F1); test: ELISA, coated LRP10, antibody at 62.5 ng/ml
T1 sequence (looked up): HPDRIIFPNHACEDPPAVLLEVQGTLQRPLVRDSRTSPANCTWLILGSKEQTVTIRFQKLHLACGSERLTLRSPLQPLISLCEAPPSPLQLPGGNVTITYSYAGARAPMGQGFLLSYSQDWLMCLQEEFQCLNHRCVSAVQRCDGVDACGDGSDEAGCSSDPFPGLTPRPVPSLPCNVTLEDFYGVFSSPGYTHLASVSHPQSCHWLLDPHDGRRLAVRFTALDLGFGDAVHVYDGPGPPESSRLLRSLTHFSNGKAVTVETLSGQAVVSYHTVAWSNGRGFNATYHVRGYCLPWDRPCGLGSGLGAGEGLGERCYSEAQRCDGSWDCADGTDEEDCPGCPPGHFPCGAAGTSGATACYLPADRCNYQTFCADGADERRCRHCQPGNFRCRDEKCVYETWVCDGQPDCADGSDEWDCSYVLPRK

[2] = target: T1, His-tagged recombinant human LRP10 protein, LRP10-516H (human); test: ELISA, coated LRP10, antibody at 1000 ng/ml
[3] = target: T1, His-tagged recombinant human LRP10 protein, LRP10-516H (human); test: ELISA, coated LRP10, antibody at 15.63 ng/ml
[4] = target: T1, His-tagged recombinant human LRP10 protein, LRP10-516H (human); test: ELISA, coated LRP10, antibody at 3.91 ng/ml
[5] = target: T1, His-tagged recombinant human LRP10 protein, LRP10-516H (human); test: ELISA, coated LRP10, antibody at 0.98 ng/ml
[6] = target: T1, His-tagged recombinant human LRP10 protein, LRP10-516H (human); test: ELISA, coated LRP10, antibody at 0.24 ng/ml
[7] = target: T1, His-tagged recombinant human LRP10 protein, LRP10-516H (human); test: ELISA, coated LRP10, antibody at 0 ng/ml (background well)
[8] = target: T1, His-tagged recombinant human LRP10 protein, LRP10-516H (human); test: ELISA, coated LRP10, antibody at 250 ng/ml
[9] = target: T2, His-tagged recombinant human LRP10 protein, LRP10-516H (human, UniProt Q7Z4F1 17-440); test: ELISA, coated LRP10, serial dilution of antibody
T2 construct: The ELISA protocol calls the coated protein 'LR10'; also called target protein LR10; target antigen; not shown: His tag
T2 sequence (looked up): T1 sequence (looked up)
Description: 1) Coat the target protein LR10 (1 μg/ml, 0.1 μg/well) in a certain coating buffer (0.1 M NaHCO₃, pH 9.6). Incubate overnight at 4° C. [0234] 2) Wash the wells 3 times with 300 μL washing buffer (0.1% PBST) per well. [0235] 3) Block the wells with 300 μL blocking buffer (3% BSA) for 1 h at 37° C. [0236] 4) Discard the blocking buffer and wash the plate 3 times with the washing buffer, slapping the plate face-down onto a clean section of paper towel each time. [0237] 5) Add 100 μL of a serial dilution of antibodies per well. Incubate at 37° C. for 1 h. [0238] 6) Wash 3 times with the washing buffer. Dilute HRP-goat anti-human IgG (1:4,000) in the blocking buffer (3% BSA). Add 100 μL of diluted conjugate per well and incubate at 37° C. for 1 h. […] 7) Wash 3 times with the washing buffer. Dissolve Tetramethylbenzidine (TMB) substrate (Sigma, USA) in […] citrate-phosphate buffer and add 1 μL/mL H₂O₂ to the solution. Add 100 μL of substrate solution per well and incubate at room temperature for 15 minutes. [0240] 8) Add 100 μL of 2 mol/L H₂SO₄ solution to stop the reaction. [0241] 9) Read plates using a microplate reader set at 490 nm.
For the 8 well-expressed antibodies, we tested their binding activities to the target antigen by ELISA (Table 7 and FIG. 11).

[10] = target: T3, mouse LRP10 (Lrp10) on C57BL/6 T cells (mouse (Mus musculus), UniProt Q7TQH7 18-713); test: cell-based or functional assay
T3 sequence (looked up): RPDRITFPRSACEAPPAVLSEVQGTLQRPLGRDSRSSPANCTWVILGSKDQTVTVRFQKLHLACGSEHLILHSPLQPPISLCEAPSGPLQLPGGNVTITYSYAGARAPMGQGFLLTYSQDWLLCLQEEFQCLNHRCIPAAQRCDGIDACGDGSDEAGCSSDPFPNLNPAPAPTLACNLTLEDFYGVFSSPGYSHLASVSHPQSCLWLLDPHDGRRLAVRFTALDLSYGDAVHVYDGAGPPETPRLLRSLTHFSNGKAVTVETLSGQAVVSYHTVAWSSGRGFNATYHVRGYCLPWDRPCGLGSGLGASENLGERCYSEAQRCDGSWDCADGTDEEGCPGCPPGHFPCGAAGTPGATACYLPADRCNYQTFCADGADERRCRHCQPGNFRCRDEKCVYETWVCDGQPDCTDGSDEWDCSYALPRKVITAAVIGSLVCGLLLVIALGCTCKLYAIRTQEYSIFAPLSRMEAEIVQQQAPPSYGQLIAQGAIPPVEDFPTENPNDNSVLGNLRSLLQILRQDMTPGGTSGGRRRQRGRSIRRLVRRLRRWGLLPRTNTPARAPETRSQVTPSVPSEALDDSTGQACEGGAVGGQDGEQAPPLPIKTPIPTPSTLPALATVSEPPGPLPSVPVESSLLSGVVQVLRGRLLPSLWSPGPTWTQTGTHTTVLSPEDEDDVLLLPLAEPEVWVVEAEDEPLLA

[11] = target: T2, His-tagged recombinant human LRP10 …; test: ELISA on coated LRP10

ELISA signal (plate read at 490 nm) [1]: 0.09 and 0.0989
ELISA signal (plate read at 490 nm) [2]: 0.289 and 0.349
ELISA signal (plate read at 490 nm) [3]: 0.0656 and 0.0659
ELISA signal (plate read at 490 nm) [4]: 0.0615 and 0.0582
ELISA signal (plate read at 490 nm) [5]: 0.0588 and 0.0556
ELISA signal (plate read at 490 nm) [6]: 0.0606 and 0.0573
ELISA signal (plate read at 490 nm) [7]: 0.0595 and 0.0594
ELISA signal (plate read at 490 nm) [8]: 0.128 and 0.133
B1: Clone 6 (AB6) (antibody, human IgG1, V domains shown)
VH: EVQLLESGGGLVQPGGSLRLSCAASGFTFSSYAMSWVRQAPGKGLEWVSSIPSRGQATKYADSVKGRFTISRDNSKNTLYLQMNSLRAEDTAVYYCAKSRHTFDYWGQGTLVTVSS
VL: DIQMTQSPSSLSASVGDRVTITCRASQSISSYLNWYQQKPGKAPKLLIYDASLLQSGVPSRFSGSGSGTDFTLTISSLQPEDFATYYCQQTSAGPGTFGQGTKVEIK

EC50 [9]: 0.0357 mg/L
migration rate of T cells in response to SDF-1, transwell [10]: ~2 fold higher than vehicle
B2: Clone 7 (AB7) (antibody, human IgG1, V domains shown)
VH: B1 VH with P52A, S53T, R54T, Q56N, A57T, K59Y, S99N, R100T, H101A
VL: B1 VL with D50A, L53T, T91N, S92D, A93Y, G94Y, G96T
notes: Expressed as a full antibody in 293F cells, protein A purified; also called AB7 (L7 + H6); AB7: L7 + H6

EC50 [9]: 0.013 mg/L
B3: Clone 1 (AB1) (antibody, V domains shown)
VH: B1 VH with Y32Q, S53P, R54G, Q56P, A57N, R100Y, H101P, T102S
VL: B1 VL with D50N, L53D, T91S, A93R, G94T, G96T
notes: also called AB1 (L1 + H1); AB1: L1 + H1

EC50 [9]: 0.0349 mg/L
B4: Clone 3 (AB3) (antibody, human IgG1, V domains shown)
VH: B1 VH with S50Q, P52G, S53T, R54M, Q56R, A57P, K59T, R100G, H101K, T102K
VL: B1 VL with D50R, L53R, T91P, S92T, A93S, G94L, G96L
notes: Expressed as a full antibody in 293F cells, protein A purified; also called AB3 (L3 + H2); AB3: L3 + H2

binding result [11]: no binding
B5: Clone 9 (AB9) (antibody, human IgG1, V domains shown)
VH: B1 VH with P52Y, S53T, R54S, Q56A, K59T, R100Y, H101P, T102S
VL: B1 VL with D50N, L53D, T91S, A93R, G94T, G96T
notes: Expressed as a full antibody in 293F cells, protein A purified; also called AB9 (L1 + H8); AB9: L1 + H8

EC50 [9]: 0.0148 mg/L
migration rate of T cells in response to SDF-1, transwell [10]: ~2 fold higher than vehicle
B6: Clone 2 (AB2) (antibody, human IgG1, V domains shown)
VH: B1 VH with Y32Q, S53P, R54G, Q56P, A57N, R100Y, H101P, T102S
VL: B1 VL with D50A, L53P, T91V, S92A, A93R, G94T, G96N
notes: Expressed as a full antibody in 293F cells, protein A purified; also called AB2 (L2 + H1); AB2: L2 + H1

EC50 [9]: 0.0117 mg/L
migration rate of T cells in response to SDF-1, transwell [10]: ~2 fold higher than vehicle
B7: Clone 8 (AB8) (antibody, human IgG1, V domains shown)
VH: B1 VH with P14L, Y32Q, S53P, R54G, Q56P, A57N, R100Y, H101P, T102S
VL: B1 VL with D50N, L53D, T91S, A93R, G94T, G96T
notes: Expressed as a full antibody in 293F cells, protein A purified; also called AB8 (L1 + H7); AB (L1 + H7)

Source: patent publication US20200385459A1 (University of Texas, published 2020)
